Test results taken from the Immune Epitope Database (IEDB).
pKd: −log10 of the molar value. Values belong to the sequence of their own block, whether it stands above or below them.

What was measured:
HLA-A*02:01 [1] = experiment: IEDB peptide-MHC binding, purified MHC/direct/fluorescence; filed as Kd, often an IC50 or EC50 that approximates it; ≥ and ≤ were set here for values at or beyond the usual limits of such assays
HLA-A*02:16 [2] = experiment: as above; conditions: source organism: Listeria monocytogenes serotype 4b str. H7858
HLA-A*69:01 = experiment: as above
HLA-A*02:50 = experiment: IEDB peptide-MHC binding, purified MHC/competitive/fluorescence; filed as Kd, often an IC50 or EC50 that approximates it; ≥ and ≤ were set here for values at or beyond the usual limits of such assays
HLA-A*01:01 = experiment: as above
HLA-A*02:01 [3] = experiment: as above; conditions: source organism: Corynebacterium glutamicum ATCC 13032
HLA-A*02:03 = experiment: as above; conditions: source organism: Corynebacterium glutamicum ATCC 13032
HLA-A*02:06 [4] = experiment: as above; conditions: source organism: Corynebacterium glutamicum ATCC 13032
HLA-A*02:11 [5] = experiment: as above; conditions: source organism: Corynebacterium glutamicum ATCC 13032
HLA-A*02:12 = experiment: as above; conditions: source organism: Corynebacterium glutamicum ATCC 13032
HLA-A*02:16 [6] = experiment: as above; conditions: source organism: Corynebacterium glutamicum ATCC 13032
HLA-A*02:19 = experiment: as above; conditions: source organism: Corynebacterium glutamicum ATCC 13032
HLA-A*03:01 [7] = experiment: as above; conditions: source organism: Corynebacterium glutamicum ATCC 13032
HLA-A*11:01 = experiment: as above
HLA-A*24:02 = experiment: as above; conditions: source organism: Corynebacterium glutamicum ATCC 13032
HLA-A*26:01 [8] = experiment: as above; conditions: source organism: Corynebacterium glutamicum ATCC 13032
HLA-A*30:01 = experiment: as above
HLA-A*31:01 = experiment: as above; conditions: source organism: Corynebacterium glutamicum ATCC 13032
HLA-B*07:02 = experiment: as above
HLA-B*15:01 = experiment: as above; conditions: source organism: Corynebacterium glutamicum ATCC 13032
HLA-B*18:01 [9] = experiment: as above; conditions: source organism: Corynebacterium glutamicum ATCC 13032
HLA-B*27:05 = experiment: as above
HLA-B*35:01 = experiment: as above; conditions: source organism: Corynebacterium glutamicum ATCC 13032
HLA-B*40:01 = experiment: as above
HLA-B*46:01 [10] = experiment: as above; conditions: source organism: Corynebacterium glutamicum ATCC 13032
HLA-B*58:01 = experiment: as above
HLA-A*02:06 [11] = experiment: IEDB peptide-MHC binding, purified MHC/direct/fluorescence; filed as Kd, often an IC50 or EC50 that approximates it; ≥ and ≤ were set here for values at or beyond the usual limits of such assays; conditions: source organism: Yersinia pestis CA88-4125
HLA-A*02:11 [12] = experiment: as above; conditions: source organism: Yersinia pestis CA88-4125
HLA-A*03:01 [13] = experiment: as above; conditions: source organism: Yersinia pestis CA88-4125
HLA-A*24:03 = experiment: as above; conditions: source organism: Yersinia pestis CA88-4125
HLA-A*26:01 [14] = experiment: as above; conditions: source organism: Yersinia pestis CA88-4125
HLA-A*29:02 = experiment: as above; conditions: source organism: Yersinia pestis CA88-4125
HLA-B*18:01 [15] = experiment: as above; conditions: source organism: Yersinia pestis CA88-4125
HLA-B*27:03 = experiment: as above; conditions: source organism: Yersinia pestis CA88-4125
HLA-B*39:01 = experiment: as above; conditions: source organism: Yersinia pestis CA88-4125
HLA-B*46:01 [16] = experiment: as above; conditions: source organism: Yersinia pestis CA88-4125
HLA-B*51:01 = experiment: as above; conditions: source organism: Yersinia pestis CA88-4125
HLA-B*57:01 = experiment: as above; conditions: source organism: Yersinia pestis CA88-4125
HLA-A*23:01 = experiment: IEDB peptide-MHC binding, purified MHC/competitive/fluorescence; filed as Kd, often an IC50 or EC50 that approximates it; ≥ and ≤ were set here for values at or beyond the usual limits of such assays; conditions: source organism: Yersinia pestis CO92
HLA-A*30:02 = experiment: as above; conditions: source organism: Yersinia pestis CO92
HLA-A*66:01 = experiment: as above; conditions: source organism: Yersinia pestis CO92
HLA-B*08:01 = experiment: as above; conditions: source organism: Yersinia pestis CO92
HLA-B*14:02 = experiment: as above; conditions: source organism: Yersinia pestis CO92
HLA-B*44:02 = experiment: as above; conditions: source organism: Yersinia pestis CO92
HLA-B*53:01 = experiment: as above; conditions: source organism: Yersinia pestis CO92
[17] = source organism: Listeria monocytogenes
[18] = source organism: Corynebacterium glutamicum ATCC 13032
[19] = source organism: Yersinia pestis CA88-4125
[20] = source organism: Yersinia pestis CO92

Sequence: ALVSEVTEV
pKd (HLA-A*02:01 [1]; [17]): 7.10
pKd (HLA-A*02:16 [2]): 8.70
pKd (HLA-A*69:01; [17]): 5.72
pKd (HLA-A*02:50; source organism: Listeria monocytogenes EGD-e): ≥ 10.00

pKd (HLA-A*01:01; [18]): ≤ 4.70
pKd (HLA-A*02:01 [3]): 6.01
pKd (HLA-A*02:03): 6.02
pKd (HLA-A*02:06 [4]): 8.66
pKd (HLA-A*02:11 [5]): 7.57
pKd (HLA-A*02:12): 6.10
pKd (HLA-A*02:16 [6]): 7.01
pKd (HLA-A*02:19): ≤ 4.70
pKd (HLA-A*02:50; [18]): 7.87
pKd (HLA-A*03:01 [7]): ≤ 4.70
pKd (HLA-A*11:01; [18]): ≤ 4.70
pKd (HLA-A*24:02): ≤ 4.70
pKd (HLA-A*26:01 [8]): ≤ 4.70
pKd (HLA-A*30:01; [18]): ≤ 4.70
pKd (HLA-A*31:01): ≤ 4.70
pKd (HLA-B*07:02; [18]): ≤ 4.70
pKd (HLA-B*15:01): ≤ 4.70
pKd (HLA-B*18:01 [9]): ≤ 4.70
pKd (HLA-B*27:05; [18]): ≤ 4.70
pKd (HLA-B*35:01): ≤ 4.70
pKd (HLA-B*40:01; [18]): ≤ 4.70
pKd (HLA-B*46:01 [10]): ≤ 4.70
pKd (HLA-B*58:01; [18]): ≤ 4.70
Sequence: HLPELIWRS

Sequence: QQRPDLILV
pKd (HLA-A*02:01 [1]; [19]): 5.46
pKd (HLA-A*02:06 [11]): 6.77
pKd (HLA-A*02:11 [12]): ≤ 4.70
pKd (HLA-A*03:01 [13]): ≤ 4.70
pKd (HLA-A*24:03): ≤ 4.70
pKd (HLA-A*26:01 [14]): ≤ 4.70
pKd (HLA-A*29:02): 7.05
pKd (HLA-A*69:01; [19]): ≤ 4.70
pKd (HLA-B*18:01 [15]): ≤ 4.70
pKd (HLA-B*27:03): ≤ 4.70
pKd (HLA-B*39:01): ≤ 4.70
pKd (HLA-B*46:01 [16]): ≤ 4.70
pKd (HLA-B*51:01): ≤ 4.70
pKd (HLA-B*57:01): ≤ 4.70
pKd (HLA-A*01:01; [20]): ≤ 5.30
pKd (HLA-A*11:01; [20]): ≤ 5.30
pKd (HLA-A*23:01): ≤ 5.30
pKd (HLA-A*30:01; [20]): ≤ 5.30
pKd (HLA-A*30:02): ≤ 4.70
pKd (HLA-A*66:01): ≤ 5.30
pKd (HLA-B*07:02; [20]): ≤ 5.30
pKd (HLA-B*08:01): ≤ 5.30
pKd (HLA-B*14:02): ≤ 5.30
pKd (HLA-B*27:05; [20]): ≤ 5.30
pKd (HLA-B*40:01; [20]): ≤ 5.30
pKd (HLA-B*44:02): ≤ 5.30
pKd (HLA-B*53:01): ≤ 5.30
pKd (HLA-B*58:01; [20]): ≤ 5.30
